Results taken from PMC5014086 (2016).
Changes are numbered by the printed parent chain. Names and notes keep the numbering of the source. Read-outs that look alike come from different tables or passages of the source.

Tests used:
Assay in all cases: SPR
[1] = biological target: T1, wild-type KRM1ECD as immobilised for SPR (human, UniProt Q96MU8 21-392)
T1 chain: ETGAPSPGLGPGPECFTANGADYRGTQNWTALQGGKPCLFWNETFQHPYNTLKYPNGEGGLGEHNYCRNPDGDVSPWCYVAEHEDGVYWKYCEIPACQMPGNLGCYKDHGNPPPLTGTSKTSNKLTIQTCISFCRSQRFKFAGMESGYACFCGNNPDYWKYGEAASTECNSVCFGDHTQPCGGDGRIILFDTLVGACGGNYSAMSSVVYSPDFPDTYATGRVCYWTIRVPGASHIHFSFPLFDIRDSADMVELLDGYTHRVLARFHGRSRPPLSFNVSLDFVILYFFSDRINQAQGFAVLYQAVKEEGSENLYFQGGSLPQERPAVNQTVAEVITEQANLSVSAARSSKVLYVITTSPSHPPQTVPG

[2] = biological target: T2, GlycoCUB mutant of KRM1ECD (309NQA311→NQS, N-glycan at N309) (human, UniProt Q96MU8 21-392, 309NQA311→NQS, additional N-glycan at N309)
T2 sequence: T1 chain with A294S

[3] = biological target: T3, LRP6_(PE1PE2) fragment; details: chain shown with the change; 25 µM LRP6PE1PE2 (highest concentration of the titration); parent: est. 100; read off a plot
T3 chain: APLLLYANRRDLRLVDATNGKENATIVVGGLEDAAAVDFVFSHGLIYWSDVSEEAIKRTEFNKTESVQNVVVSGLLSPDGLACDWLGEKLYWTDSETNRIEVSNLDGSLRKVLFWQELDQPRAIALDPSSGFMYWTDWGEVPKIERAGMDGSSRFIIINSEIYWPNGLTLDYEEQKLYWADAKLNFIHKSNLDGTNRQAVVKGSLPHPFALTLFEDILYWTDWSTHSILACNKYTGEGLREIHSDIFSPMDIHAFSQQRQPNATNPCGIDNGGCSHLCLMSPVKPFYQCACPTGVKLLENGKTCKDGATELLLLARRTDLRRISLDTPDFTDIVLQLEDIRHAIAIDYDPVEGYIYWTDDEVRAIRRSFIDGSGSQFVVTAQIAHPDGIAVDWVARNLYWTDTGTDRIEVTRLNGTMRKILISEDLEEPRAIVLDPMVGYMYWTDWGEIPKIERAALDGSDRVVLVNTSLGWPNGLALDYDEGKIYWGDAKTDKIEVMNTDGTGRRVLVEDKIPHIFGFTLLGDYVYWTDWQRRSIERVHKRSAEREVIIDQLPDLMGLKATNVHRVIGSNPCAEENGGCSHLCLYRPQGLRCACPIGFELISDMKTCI

[4] = biological target: T1, wild-type KRM1ECD as immobilised for SPR

B1: full-length DKK1 (ligand)
chain: TLNSVLNSNAIKNLPPPLGGAAGHPGSAVSAAPGILYPGGNKYQTIDNYQPYPCAEDEECGTDEYCASPTRGGDAGVQICLACRKRRKRCMRHAMCCPGNYCKNGICVSSDQNHFRGEIEETITESFGNDHSTLDGYSRRTTLSSKMYHTKGQEGSVCLRSSDCASGLCCARHFWSKICKPVLKEGQVCTKHRRKGSHGLEIFQRCYCGEGLSCRIQKDHHQASNSSRLHTCQRH
**Q.** With B1 as the binder, how does the Kd [1] read?
**A.** 1.2 µM

**Q.** What about the Kd [2] of the same binder?
**A.** 1.3 µM

B2: SUMO-DKK1_(Linker-CRD2), SUMO fusion as SPR analyte (domain or fragment)
chain: SDQNHFRGEIEETITESFGNDHSTLDGYSRRTTLSSKMYHTKGQEGSVCLRSSDCASGLCCARHFWSKICKPVLKEGQVCTKHRRKGSHGLEIFQRCYCGEGLSCRIQKDHHQASNSSRLHTCQRH
**Q.** With B2 as the binder, how does the Kd [1] read?
**A.** 0.4 µM

B3: wild-type KRM1ECD as immobilised for SPR, Q96MU8 A311S (protein)
chain: T1 chain with A294S
**Q.** For B3, which response (response units) [3] is on record?
**A.** -20

B4: LRP6_(PE1PE2) fragment (domain or fragment)
chain: T3 chain
**Q.** With B4 as the binder, how does the Kd [4] read?
**A.** 18.9 µM
